Experimental data published in patent US20250368752A1 (AMPSOURCE BIOPHARMA SHANGHAI, published 2025).
Blank lines part the entries; values can stand above or below the binder they belong to.

Experiments:
[1] = target: T1, human TFPI with a His tag (human, UniProt P10646 29-282, limits assumed); assay: BLI (ForteBio Octet), His-tagged human TFPI on Ni-NTA sensors, antibody 3.125-100 nM
T1 construct: Coupled to Ni-NTA sensors at 10 ug/mL for BLI; not shown: His tag
T1 sequence (looked up): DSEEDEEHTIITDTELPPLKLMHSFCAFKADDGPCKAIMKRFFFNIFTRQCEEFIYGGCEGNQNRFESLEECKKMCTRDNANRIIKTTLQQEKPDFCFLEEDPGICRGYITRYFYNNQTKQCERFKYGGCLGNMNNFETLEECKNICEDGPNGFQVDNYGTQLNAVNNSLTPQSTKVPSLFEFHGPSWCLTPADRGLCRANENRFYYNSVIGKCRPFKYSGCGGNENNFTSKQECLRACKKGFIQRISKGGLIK
Description: The binding affinity constant of the purified mouse monoclonal antibody against human TFPI (mAb3-71) to human TFPI was determined using biolayer interferometry (BLI) with the ForteBio Octet RED&QK system from PALL Corporation. The concentration gradient for multi-channel parallel quantitative analysis was set to 3.125, 6.25, 12.5, 25, 50, and 100 nM, and human TFPI with a His tag at 10 μg/mL was coupled to Ni-NTA sensors.

[2] = target: TFPI expressed on HUVECs (human) (UniProt P10646); assay: cell-based or functional assay
[3] = target: TFPI expressed on HUVECs (human) (UniProt P10646); assay: flow cytometry on HUVEC cells, AF647 goat anti-human IgG detection
human TFPI protein = target: T2, human TFPI protein (human, UniProt P10646 29-282, limits assumed); assay: ELISA, human TFPI coated at 0.1 ug/mL, HRP goat anti-human IgG detection
T2 construct: Soluble human TFPI, coated on ELISA plates (6.1) and used in solution in the FXa and TF/FVIIa/FX assays (6.2, 6.3)
T2 sequence (looked up): T1 sequence (looked up)
Description: Human TFPI was coated onto the ELISA plate at a concentration of 0.1 μg/mL, with 100 μL per well, and incubated overnight at 4° C. The coating solution was then discarded, and the wells were blocked with 200 μL of PBS solution containing 1% BSA (PBSB) per well at 37° C. for 1 hour. The plate was washed with PBS solution containing 0.05% Tween-20 (PBST). A series of diluted concentrations of AB8D were added, with 100 μL per well, and incubated for 1 hour at 37° C. The plates were washed with PBST, and then HRP-labeled goat anti-human IgG (H+L) (Jackson Laboratory) was added as the detection antibody, with incubation for 1 hour at 37° C. After washing three times with 0.05% PBST, TMB was added, with 100 μL per well, and the color was developed at room temperature for 5 minutes. The reaction was terminated by adding 0.2 M H₂SO₄, with 50 μL per well. The absorbance values were read at dual wavelengths of 450/620 nm using a microplate reader. Using OD450 nm-OD620 nm as the Y-axis and antibody concentration as the X-axis, the data were analyzed using GraphPad Prism 6 software with a four-parameter logistic curve fitting to calculate the EC₅₀ value.

Kd [1]: 4.54 pM
koff [1]: 1.31e-06 s⁻¹
kon [1]: 289000 M⁻¹ s⁻¹
B1: mouse monoclonal antibody against human TFPI, mAb3-71 (antibody, V domains shown)
VH: QVQLQQPEAELMKPGASVKLSCKASGYTFTSYWMHWVKQRPGQGLEWIGEIKPDNGRINYNEKFKTKATLAVDKSSSTAYMQLNSLTSGDSAVYYCARSSVVDVAMDYWGQGTSVSVSS
VL: QIVLTQSPAIMSASPGEKVTLTCSASSSVSSSYLYWYQQKPGSSPKLWISGTSILASGVPARFSGSGSGTSYSLTISSMEAEDTASYFCHQWSHYPFTFGSGTKLEIK
notes: also called hybridoma cell line #3-71

neutralization of TFPI on HUVEC cells (FVIIa/FX added, S-2765, OD405 nm) [2]: 117 ng/mL
EC50 [3]: 0.0286 µg/mL
EC50 (human TFPI protein): 0.00165 µg/mL
B2: humanized anti-human TFPI antibody AB8D (antibody, V domains shown)
VH: EVQLVQSGAELKKPGASVKLSCKASGYTFTSYWMHWVRQTPGQGLEWIGEIKPDQGRINYNEKFKTRATLTADKSTSTAYMELSSLRSEDTAVYYCARSSVVDVAMDYWGQGTTVTVSS
VL: EIVLTQSPATLSLSPGERATLSCSASSSVSSSYLYWYQQKPGQAPRLWISGTSILASGVPARFSGSGSGTKYTLTISSLEPEDFAVYFCHQWSHYPFTFGQGTKLEIK
notes: Full-length humanized IgG of about 145 kD, expressed in CHO cells
